Laboratory results reported in paper doi:10.1101/2024.12.12.628194.

Legend:
[1] = target: TaqCad1 (CARF-fused adenosine deaminase Cad1 from Thermoanaerobaculum aquaticum), wild type (Thermoanaerobaculum aquaticum); assay: cryo-EM structure
[2] = target: TaqCad1 R408D/A411E variant (Thermoanaerobaculum aquaticum); assay: SEC

Row | Substance | stoichiometry N [1] | stoichiometry N [2]
1 | TaqCad1 (CARF-fused adenosine deaminase Cad1 from Thermoanaerobaculum aquaticum), wild type (enzyme) | 6 | –
2 | TaqCad1 R408D/A411E variant (enzyme) | – | 2
